Measurements: patent US6632626 (dated 2003)

Legend:
[1] = molecular target: T1, rat brain farnesyl:protein transferase (rat, UniProt Q04631 2-377; Q02293 1-437); assay: cell-based or functional assay
[2] = molecular target: T1, rat brain farnesyl:protein transferase; assay: cell-based or functional assay; remark: listed apart in the source

Row | Concentration for 50% Inhibition (farnesyl transfer to p21^H-ras) [1] | concentration giving 50% inhibition (farnesyl transfer to p21^H-ras) [2] | Binder
1 | 100 µM | – | CAIL
2 | – | > 40 µM | CVIE [CVIM with glutamic acid at the X position]
3 | – | > 40 µM | CVIK [CVIM with lysine at the X position]
4 | – | > 40 µM | CVIG [CVIM with glycine at the X position]
